B1: CPEB3 Ribozyme (parent)
chain: GGGGGCCACAGCAGAAGCGUUCACGUCGCGGCCCCUGUCAGAUUCUGGUGAAUCUGCGAAUUCUGCUGU

In the series the parent is B1. The series is described as follows: self-cleavage, relative activity (ratio to wild type); higher = more cleavage; co-transcriptional.
For the variant AGGGGCCACAGCAGAAGCGUUCACGUCGCGGCCCGUGUCAGAUUCUGGUGAAUCUGCGAAUUCUGCUGU [G1A C35G], the self-cleavage worked out at 0.053.
With AGGGGCCACAGCAGAAGCGUUAACGUCGCGGCCCCUGUCAGAUUCUGGUGAAUCUGCGAAUUCUGCUGU [G1A C22A] the figure was 0.0619; with AGGGGCCACAGCAGAAGCGUUGACGUCGCGGCCCCUGUCAGAUUCUGGUGAAUCUGCGAAUUCUGCUGU [G1A C22G], 0.0704.
With AGGGGCCGCAGCAGAAGCGUUCACGUCGCGGCCCCUGUCAGAUUCUGGUGAAUCUGCGAAUUCUGCUGU [G1A A8G] the figure was 0.0246.
As to AGGGGCCCCAGCAGAAGCGUUCACGUCGCGGCCCCUGUCAGAUUCUGGUGAAUCUGCGAAUUCUGCUGU [G1A A8C], the self-cleavage came to 0.102.
For AGGGGCCACAGCAGAAGCGUUCACGUCGCGGCCCCUGUCAGCUUCUGGUGAAUCUGCGAAUUCUGCUGU [G1A A42C] the value was 0.106; for AGGGGCCACAGCAGAAGCGUUCACGUCGCGGCCCCUGUCAGUUUCUGGUGAAUCUGCGAAUUCUGCUGU [G1A A42U], 0.105; for AGGGGCCACAGCAGAAGCGUUCACGUCGAGGCCCCUGUCAGAUUCUGGUGAAUCUGCGAAUUCUGCUGU [G1A C29A], 0.061.
For AGGGGCCACAGCAGAAGCGUUCACGUCGCGUCCCCUGUCAGAUUCUGGUGAAUCUGCGAAUUCUGCUGU [G1A G31U] the value was 0.0837; for AGGGGCCACAGUAGAAGCGUUCACGUCGCGGCCCCUGUCAGAUUCUGGUGAAUCUGCGAAUUCUGCUGU [G1A C12U], 0.0887; for AGGUGCCACAGCAGAAGCGUUCACGUCGCGGCCCCUGUCAGAUUCUGGUGAAUCUGCGAAUUCUGCUGU [G1A G4U], 0.0804.
For AGGGGCCACAGCAGAAGCGUUCACGUCGCGGCCCCUGUCAGAUUCUGGUGAAUCUGCGAGUUCUGCUGU [G1A A60G] the value was 0.0623; for AGGGGCCACAGCAGAAGCGUUCACGUCGCGGCCCCUGUCAGAUUCUGGUGAAUCUGCGAUUUCUGCUGU [G1A A60U], 0.107.
As to AGGGGCCACAGCAGAAGCGUUCACGUGGCGGCCCCUGUCAGAUUCUGGUGAAUCUGCGAAUUCUGCUGU [G1A C27G], the self-cleavage is 0.0668.
As for AUGGGCCACAGCAGAAGCGUUCACGUCGCGGCCCCUGUCAGAUUCUGGUGAAUCUGCGAAUUCUGCUGU [G1A G2U], the self-cleavage was found to be 0.332.
For AAGGGCCACAGCAGAAGCGUUCACGUCGCGGCCCCUGUCAGAUUCUGGUGAAUCUGCGAAUUCUGCUGU [G1A G2A] the value was 0.302.
With ACGGGCCACAGCAGAAGCGUUCACGUCGCGGCCCCUGUCAGAUUCUGGUGAAUCUGCGAAUUCUGCUGU [G1A G2C] the figure was 0.265; with AGGGGCCACAGCAGAAGCGUUCACGUCGCGGCCCCUGUCGGAUUCUGGUGAAUCUGCGAAUUCUGCUGU [G1A A40G], 0.0657; with AGGGGCCACUGCAGAAGCGUUCACGUCGCGGCCCCUGUCAGAUUCUGGUGAAUCUGCGAAUUCUGCUGU [G1A A10U], 0.0492.
With AGGGGCCACGGCAGAAGCGUUCACGUCGCGGCCCCUGUCAGAUUCUGGUGAAUCUGCGAAUUCUGCUGU [G1A A10G] the figure was 0.115.
On to AGGGGCCACAGCAGAAGCGUUCACGUCGCGGCCCCUGUAAGAUUCUGGUGAAUCUGCGAAUUCUGCUGU [G1A C39A], for which the self-cleavage amounted to 0.0683.
For AGGGGCCACAGCAGAAGCGUUCACGUCGCGGCCCCUGUGAGAUUCUGGUGAAUCUGCGAAUUCUGCUGU [G1A C39G] the value was 0.0386; for AGGGGCCACAGCAGAAGCGUUCACGUCGCGGCCCCUGUCAGAUUAUGGUGAAUCUGCGAAUUCUGCUGU [G1A C45A], 0.0944.
For AGGGGCCACAGCAGAAGCGUUCACGUCGCGGCCCCUAUCAGAUUCUGGUGAAUCUGCGAAUUCUGCUGU [G1A G37A], the self-cleavage is 0.0641.
With AGGGGCCACAGCAGAAGCGUUCACGUCACGGCCCCUGUCAGAUUCUGGUGAAUCUGCGAAUUCUGCUGU [G1A G28A] the figure was 0.0534.
With AGGGGCCACAGCAGAAGCGUUCACGUCGCGGCACCUGUCAGAUUCUGGUGAAUCUGCGAAUUCUGCUGU [G1A C33A], the self-cleavage came to 0.0757.
With AGGGGCCACAGCAGAAGCGUUCACGUCGCGGCCCCUGUCAGAUUCUGGUGCAUCUGCGAAUUCUGCUGU [G1A A51C] the figure was 0.114; with AGGGGCCACAGCAGAAGCGUUCACGUCGCGGCCCCUGUCAGAUUCUGGUGGAUCUGCGAAUUCUGCUGU [G1A A51G], 0.0779.
With AGGGGCCACACCAGAAGCGUUCACGUCGCGGCCCCUGUCAGAUUCUGGUGAAUCUGCGAAUUCUGCUGU [G1A G11C] the figure was 0.0395; with AGGGGCCACAGCAGAAGCGUUCACUUCGCGGCCCCUGUCAGAUUCUGGUGAAUCUGCGAAUUCUGCUGU [G1A G25U], 0.076; with AGGGGCCACAGCAGAAGCGUUCACAUCGCGGCCCCUGUCAGAUUCUGGUGAAUCUGCGAAUUCUGCUGU [G1A G25A], 0.0488.
With AGGGGCCACAGCAGAACCGUUCACGUCGCGGCCCCUGUCAGAUUCUGGUGAAUCUGCGAAUUCUGCUGU [G1A G17C] the figure was 0.0672; with AGGGGCCACAGCAUAAGCGUUCACGUCGCGGCCCCUGUCAGAUUCUGGUGAAUCUGCGAAUUCUGCUGU [G1A G14U], 0.0964; with AGGGGCCACAGCAGAAGCGUUCCCGUCGCGGCCCCUGUCAGAUUCUGGUGAAUCUGCGAAUUCUGCUGU [G1A A23C], 0.0884.
In the case of AGGGGCCACAGCAGAAGCGUUCGCGUCGCGGCCCCUGUCAGAUUCUGGUGAAUCUGCGAAUUCUGCUGU [G1A A23G], the self-cleavage came to 0.139.
For AGAGGCCACAGCAGAAGCGUUCACGUCGCGGCCCCUGUCAGAUUCUGGUGAAUCUGCGAAUUCUGCUGU [G1A G3A] the value was 0.107; for AGUGGCCACAGCAGAAGCGUUCACGUCGCGGCCCCUGUCAGAUUCUGGUGAAUCUGCGAAUUCUGCUGU [G1A G3U], 0.0455.

Values taken from the RNAGym collection of RNA variant scans (doi:10.7554/elife.80360).
